Data on nine molecules can be found in doi:10.1101/2023.07.10.548257 (bioRxiv, 2024).

Changes are numbered by the printed parent chain. No end group written: not given here.

One experiment deals with T1, SHP2 N-SH2^T42A domain (Homo sapiens, UniProt Q06124, T42A).
T1 construct: SHP2 SH2 domains were cloned into a His6-SUMO-SH2-Avi construct; His6-SUMO (N, cleaved yes); made in house; host or cells: E. coli C43(DE3), co-expressed with BirA
T1 sequence (Q06124 6-102 T42A limits assumed): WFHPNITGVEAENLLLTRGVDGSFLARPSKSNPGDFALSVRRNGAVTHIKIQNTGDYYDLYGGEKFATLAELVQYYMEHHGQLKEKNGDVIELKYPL
The experiment is described as follows: Direct fluorescence polarization binding, N-SH2 T42A. As to conditions: direct fluorescence polarization with fluorescent peptide. How it is done: Fluorescence polarization binding assays
SH2 domains were thawed in room temperature water and their absorbance at 280 nm was measured to determine concentration. SH2 domains were serially diluted 15 times in assay buffer (60 mM HEPES pH 7.2, 75 mM KCl, 75 mM NaCl,1 mM EDTA, 0.05% Tween-20), with a 2x starting concentrations generally in the low micromolar range. […] The […]
fluorescent peptide was diluted to 2x the desired concentration and mixed in 1:1 ratio with the different concentrations of SH2 domain (specific fluorescent peptide concentrations can be found in Table S2).
The mixture was transferred to a black 96-well plate and incubated for 15 minutes at room temperature. Parallel and perpendicular measurements were taken using the 485/30 polarization cube on the BioTek Neo2 Plate Reader. Data was analyzed and fitted to a quadratic binding equation to determine the KD for the fluorescent peptide, according to previously established methods (2, 3). […]
P-values comparing affinities for different SH2 domains were calculated using an unpaired Welch’s t-test. […]
Right before starting the plate reader assay, 30 μL SHP2 was added to each well a Supplementary Information - page 4 of 18
In general terms: Polarisation of emitted light reports the rotation of a fluorescent probe.

For experiment [1], the target named is SHP2 N-SH2 domain, wild type (N-SH2-Avi-biotin) (UniProt Q06124). The experiment in a line: peptide display screen (pTyr-Var Library). The conditions noted are these: N = 2 independent library transformations and screens, read off a plot.
The target of a further experiment is T2, SHP2 C-SH2^WT domain (Homo sapiens, UniProt Q06124).
T2 construct: SHP2 SH2 domains were cloned into a His6-SUMO-SH2-Avi construct; His6-SUMO (N, cleaved yes); made in house; host or cells: E. coli C43(DE3), co-expressed with BirA
T2 sequence (Q06124 112-216 limits assumed): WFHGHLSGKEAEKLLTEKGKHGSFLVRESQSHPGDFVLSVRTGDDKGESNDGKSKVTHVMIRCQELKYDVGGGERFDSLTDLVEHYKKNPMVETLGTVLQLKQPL
The experiment is described as follows: SH2 specificity profiling by bacterial peptide display (Human pTyr and pTyr-Var Libraries), C-SH2 WT. It is filed as binding. The method, then:
(§1) Next, we characterized the sequence specificity of the SH2 mutants relative to their wild-type counterparts in a large-scale, unbiased screen. […] For each peptide in a library, an enrichment score is calculated from the deep sequencing data as the frequency of the peptide in the SH2-enriched sample divided by the frequency of the peptide in the unenriched input sample ([34]). For this study, we used two largely non-overlapping libraries, both encoding known human phosphosites. […] The Human pTyr Library consists of 1,916 sequences derived from known phosphorylation sites in the human proteome, along with another 617 control mutants ([35]). […]
(§2) SH2 specificity profiling using bacterial peptide display
(§3) Preparation of bacterial cells
(§4) Electrocompetent MC1061 cells were transformed with ~100 ng of the respective library. After 1 hour recovery in 1 mL LB, cells were further diluted into 250 mL LB + 0.1% chloramphenicol. 1.8 mL of overnight culture was used to inoculate 100 mL LB + 0.1% chloramphenicol, and grown until OD600 reached 0.5. 20 mL of cell suspension was induced at 25 °C using a final concentration of 0.4% arabinose until the OD600 ~ 1 (after approximately 4 hours). The cells were spun down at 4000 rpm for 15 minutes, and the pellet was resuspended in PBS so that the OD600 ~1.5. The cells were stored in the fridge and used within a week.
(§5) For each sample, 75 μL of Dynabeads™ FlowComp™ Flexi Kit were washed twice in 1 mL SH2 buffer (50 mM HEPES pH 7.5, 150 mM NaCl, 1 mM TCEP, and 0.2% BSA) on a magnetic rack.
(§6) The beads were then resuspended in 75 μL of SH2 buffer. SH2 domains were thawed quickly and 20 μM of protein was added to the beads. SH2 buffer was added up to 150 μL, and the suspension was incubated for 1 hour at 4 °C while rotating. After 1 hour, the suspension was placed on a magnetic rack and washed twice with 1 mL SH2 buffer.
(§7) Preparing the phosphorylated cells
(§8) 150 μL of prepared cells per sample were spun down for 4000 rpm for 5 minutes at 4 °C.
(§9) Kinase screen buffer was prepared (50 mM Tris, 10 mM magnesium chloride, 150 mM sodium chloride; add 2 mM sodium orthovanadate and 1 mM TCEP fresh) and the cells of each sample were resuspended in 100 μL kinase screen buffer. Kinases c-Src, c-Abl, AncSZ, Eph1B were added to a final concentration of 2.5 µM each, creatine phosphate was added to a final concentration of 5 mM, and phosphokinase was added to a final concentration of 50 µg/mL. The suspension was incubated at 37 °C for 5 minutes before ATP was added to a final concentration of 1 mM. This mixture was incubated at 37 °C for 3 hours. After 3 hours, EDTA was added to a final concentration of 25 mM to quench the reaction. The input library control sample was not phosphorylated. These cells were spun down at 4000 rpm for 15 minutes at 4 °C. The cells were then resuspended in 100 µL of SH2 buffer + 0.1% BSA. Phosphorylation of the cells was confirmed by labeling with the PY20-PerCP-eFluor 710 pan-phosphotyrosine antibody followed by analysis via flow cytometry.
(§10) Enriching for cells displaying high-affinity phosphopeptide ligands
(§11) 100 μL of phosphorylated cells were mixed with 75 µL SH2-beads for 1 hour at 4 °C while rotating. After 1 hour, samples were placed on a magnetic rack, supernatant was removed and 1 mL SH2 buffer was added to each sample. This was rotated for 30 minutes at 4 °C to wash the beads.
(§12) After this wash, the beads were placed on a magnetic rack, the supernatant was removed and 50 µL […]
(§13) Preparing sequencing samples & deep sequencing
(§14) All SH2-selected samples and the input library control were resuspended in 50 µL MilliQ water, vortexed, and boiled for 10 minutes at 100 °C. The boiled lysate was used as the DNA template in a PCR reaction using the TruSeq-eCPX-Fwd and TruSeq-eCPX-Rev primers. The mixture resulting from this PCR was used directly into a second PCR to append Illumina sequencing adaptors and Supplementary Information - page 5 of 18 […]
(§15) unique 5’ and 3’ indices to each sample (D700 and D500 series primers). The resulting PCR mixtures […]

For a further experiment, the target named is T3, SHP2 N-SH2^WT domain (Homo sapiens, UniProt Q06124).
T3 construct: SHP2 SH2 domains were cloned into a His6-SUMO-SH2-Avi construct; His6-SUMO (N, cleaved yes); made in house; host or cells: E. coli C43(DE3), co-expressed with BirA
T3 sequence (Q06124 6-102 limits assumed): T1 sequence (Q06124 6-102 T42A limits assumed) with A37T
The experiment in a line: SH2 specificity profiling by bacterial peptide display (Human pTyr and pTyr-Var Libraries), N-SH2 WT. The class given is binding. The method, then:
as §1, §2, §3, §4, §5, §6, §7, §8, §9, §10, §11, §12, §13, §14, §15

The target in the next experiment is T4, SHP2 C-SH2^E139D domain (Homo sapiens, UniProt Q06124, E139D).
T4 construct: SHP2 SH2 domains were cloned into a His6-SUMO-SH2-Avi construct; His6-SUMO (N, cleaved yes); made in house; host or cells: E. coli C43(DE3), co-expressed with BirA
T4 sequence (Q06124 112-216 E139D limits assumed): T2 sequence (Q06124 112-216 limits assumed) with E28D
The experiment in a line: SH2 specificity profiling by bacterial peptide display (Human pTyr and pTyr-Var Libraries), C-SH2 E139D. The class given is binding. How it is done: as §1, §2, §3, §4, §5, §6, §7, §8, §9, §10, §11, §12, §13, §14, §15

Experiment [2] has as its target ALDH2 pTyr 502 E504K peptide FGLQA-pY-TKVKT. The experiment in a line: peptide display screen (pTyr-Var Library). As to conditions: N = 2 independent library transformations and screens; parent: est. 1.3; read off a plot.
In experiment [3] the target is MERTK pTyr 872 I871V peptide QADVV-pY-VNTQL. The experiment is described as follows: peptide display screen (pTyr-Var Library). The conditions noted are these: N = 2 independent library transformations and screens; parent: est. 1.0; read off a plot.
Experiment [4] has as its target MLH1 pTyr 293 L292P peptide THPFP-pY-LSLEI. The experiment in a line: peptide display screen (pTyr-Var Library). The conditions noted are these: N = 2 independent library transformations and screens; parent: est. 2.9; read off a plot.
Setting [5] is: average enrichment score above cutoff of 3.2 (true binder).
Where [6] appears, read: bacterial peptide display, frequency in enriched sample / input, average, Human pTyr Library N = 3, pTyr-Var Library N = 2.

For `CC[C@H](C)[C@H](NC(=O)[C@H](Cc1ccc(OP(=O)(O)O)cc1)NC(=O)[C@H](CC(N)=O)NC(=O)[C@H](CC(C)C)NC(=O)CNC(=O)[C@H](CC(N)=O)NC(=O)[C@H](CCC(=O)O)NC(=O)CCCCCNC(=S)Nc1ccc2c(c1)C(=O)OC21c2ccc(O)cc2Oc2cc(O)ccc21)C(=O)N[C@@H](CC(=O)O)C(=O)N[C@@H](CC(C)C)C(=O)N[C@@H](CC(=O)O)C(=O)N[C@@H](CC(C)C)C(N)=O`, the “tighter binding of N-SH2^T42A compared to N-SH2^WT” value at SHP2 N-SH2^T42A domain was 5 fold.

As for “ALDH2 pTyr 502 peptide FGLQA-pY-TEVKT E504K”, the enrichment (fselected / finput) in experiment [1] (parent: est. 1.3) was 1.3.

On to “MERTK pTyr 872 peptide QADVI-pY-VNTQL I871T”, for which, in experiment [1] (parent: est. 1.0), the enrichment (fselected / finput) was determined as 1.5.

Take “MERTK pTyr 872 peptide QADVI-pY-VNTQL I871V”: the enrichment (fselected / finput) in experiment [1] (parent: est. 1.0) was found to be 1.

Turning to “MLH1 pTyr 293 peptide THPFL-pY-LSLEI L292P”, in experiment [1] (parent: est. 2.9), the enrichment (fselected / finput) was found to be 1.4.

For “SDRKGGSYTQAASSD (also: phosphorylated, site not given here) [1A01_HUMAN_344]”, the “>3.2 --> C-WT-Ave” value in the experiment with SHP2 C-SH2^WT domain (setting [5]) was “FALSE (>3.2 -->)”. In the experiment with SHP2 C-SH2^WT domain (setting [6]), the “C-WT-Ave (enrichment score)” value amounted to 0.7595. In addition, the “>3.2 --> N-WT-Ave” value in the experiment with SHP2 N-SH2^WT domain (setting [5]) is “FALSE (>3.2 -->)”. For the same molecule, the “N-WT-Ave (enrichment score)” value with SHP2 N-SH2^WT domain (bacterial peptide display, enzymatically phosphorylated displayed peptides, SH2-coated beads, deep sequencing, frequency in enriched sample / input, average, Human pTyr Library N = 3, pTyr-Var Library N = 2) was found to be 0.7728. The “>3.2 --> C-E139D-Ave” value with SHP2 C-SH2^E139D domain (setting [5]) is listed as “FALSE (>3.2 -->)”. The “C-E139D-Ave (enrichment score)” value with SHP2 C-SH2^E139D domain (setting [6]) was found to be 0.8092.

As to “Sm1; ALDH2 pTyr 502 peptide FGLQA-pY-TEVKT N-SH2: T42A; ALDH2 peptide: E504K”, the enrichment (fselected / finput) in experiment [2] came to 1.8.

Turning to “Sm1; MERTK pTyr 872 peptide QADVI-pY-VNTQL N-SH2: T42A; MERTK peptide: I871V”, the enrichment (fselected / finput) in experiment [3] was determined as 3.8.

“Sm1; MLH1 pTyr 293 peptide THPFL-pY-LSLEI N-SH2: T42A; MLH1 peptide: L292P”: the enrichment (fselected / finput) in experiment [4] was found to be 8.6.
